“Also recorded” adds a separate entry of the source.
B1: Propionicin T1: new bacteriocin isolated from Propionibacterium thoenii 419 and LMG 2792; prebacteriocin SEQ ID NO:11, N-terminal sequence SEQ ID NO:9 (protein, listed as Propionibacterium thoenii)
chain: MKKTLLRSGTIALATAAAFGASLAAAPSAMAVPGGCTYTRSNRDVIGTCKTGSGQFRIRLDCNNAPDKTSVWAKPKVMVSVHCLVGQPRSISFETK

Legend:
Listeria monocytogenes = conditions: food-borne pathogen; cited from earlier work
[1] = system: Lactobacillus sake NCDO 2714; test: overlay assay, zones of growth inhibition around producer colonies; type: cell-based; conditions: bacteriocin
Method: (§1) Screening for antimicrobial activity. Colonies of strains of propionibacteria were grown on agar plates for 72 to 120 hr. A lawn of 5 ml GM17 soft agar containing 500 μl of a fresh culture of the indicator organisms was then poured over the plates. After incubation for 24 to 48 hr at 30° C., the colonies were examined for zones of growth inhibition.

[2] = system: Propionibacterium freudenreichii; test: overlay assay, ten strains of Propionibacterium freudenreichii; type: cell-based; conditions: bacteriocin
Method: as §1

[3] = stability of propionicin T1 (heat, acid, storage); type: physicochemical
Method: (§2) Bacteriocin assay. Antimicrobial activity was determined by a microtiter plate assay (8). Each well of the microtiter plate contained 50 μl of twofold serial dilutions in SLB or GM17 of the bacteriocin samples, and 150 μl of a 100-fold-diluted fresh overnight culture of the indicator strain. The plates were incubated at 30° C. for 24 to 48 hr, and growth inhibition of the indicator organisms was measured spectrophotometrically at 620 nm with a microtiter plate reader. One bacteriocin unit (BU) was defined as the amount of bacteriocin that inhibited the growth of the indicator organism by 50% as compared with a control culture without bacteriocin.
Stability of propionicin T1. The stability of the peptide was tested, by exposing the bacteriocin (0.3 M NaCl eluate from the cation exchange column) to temperatures of 60° C. and 100° C. for 15 min and to pH 2.5 for one hour. […] Thus, propionicin T1 is heat stable and acid stable.

[4] = system: P. acidipropionici ATCC 4965; test: effect of the bacteriocin on the viability of sensitive cells; type: cell-based, Propionibacterium acidipropionici
Method: Effect of the bacteriocin on the viability of sensitive cells. Partially purified bacteriocin from P. thoenii 419 eluted in 0.3 M NaCl from an ion-exchange column was added in variable amounts to a 48 hr culture of P. acidipropionici grown in GM17, diluted 100-fold. Optical density at 620 nm and viable count (by dilution and plate counting) were determined at time intervals.
The effect of propionicin T1 on viability of sensitive cells. Several experiments were performed to show the effect of propionicin T1 on the viability of the indicator cells. Cultures of P. acidipropionici ATCC 4965 were exposed to different amounts of partially purified propionicin T1. […] More than 99% of the cells were killed after 40 hr (FIG. 2A). The same result was also obtained using 100 or 4000 BU/ml. […] This increase was followed by a decrease in optical density (FIG. 2B).

[5] = system: all strains of Propionibacterium acidipropionici tested; test: inhibition spectrum of propionicin T1; type: cell-based
Method: as §1, §2

[6] = system: all strains of Propionibacterium jensenii tested; test: inhibition spectrum of propionicin T1; type: cell-based
Method: as §1, §2

[7] = system: all strains of Propionibacterium thoenii tested; test: inhibition spectrum of propionicin T1; type: cell-based
Method: as §1, §2

| Molecule | activity against Listeria monocytogenes (Listeria monocytogenes) | activity against Lactobacillus sake NCDO 2714 [1] | activity against Propionibacterium freudenreichii [2] | antimicrobial activity after heat exposure ([3]; 60° C. for 15 min, 0.3 M NaCl eluate from cation exchange column) | antimicrobial activity after heat exposure ([3]; 100° C. for 15 min, 0.3 M NaCl eluate from cation exchange column) | antimicrobial activity after acid exposure ([3]; pH 2.5 for one hour, 0.3 M NaCl eluate from cation exchange column) | bacteriocin activity after storage at room temperature ([3]; room temperature for 24 hr) | bacteriocin activity after freezing, thawing and storage ([3]; storage at 4° C. or −20° C. up to six months) | optical density (620 nm) of bacteriocin treated cultures ([4]; 100 or 1000 BU/ml culture, FIG. 2B) | cells killed, other bacteriocin amounts ([4]; 100 or 4000 BU/ml) | viable count ([4]; after 4 hr, plate counting) | cells killed ([4]; after 40 hr, 1000 BU/ml culture, plate counting, partially purified) | mode of action on indicator cells ([4]; plate counting) | activity against Propionibacterium acidipropionici [5] | activity against Propionibacterium jensenii [6] | activity against Propionibacterium thoenii [7] |
| --- | --- | --- | --- | --- | --- | --- | --- | --- | --- | --- | --- | --- | --- | --- | --- | --- |
| pediocin PA1 (KYYGNGVTCGKHSCSVDWGKATTCIINNGAMAWATGGHQGNHKC; Bacteriocin pediocin PA-1; UniProt P29430 19-62, looked up) [antibacterial protein produced by Pediococcus acidilactici PAC1.0] | very active | – | – | – | – | – | – | – | – | – | – | – | – | – | – | – |
| nisin | not very sensitive | – | – | – | – | – | – | – | – | – | – | – | – | – | – | – |
| B1 | – | active | no activity; also recorded: no strains of P. freudenreichii were inhibited | No reduction in antimicrobial activity | No reduction in antimicrobial activity | No reduction in antimicrobial activity | no effect on the bacteriocin activity | no effect on the bacteriocin activity | increase in the optical density for several hours after addition of bacteriocin | same result | reduction in viable count | More than 99% | bactericidal effect; also recorded: slow bactericidal mode of action | active | active | active |

— patent US7179889B2, “Propionicin T1 polypeptide, a bacteriocin from Propionibacterium thoenii” (Provisage As, priority 2001, dated 2007)
